The stoichiometry N is a count of units in the complex or per binding partner.

Data set [1] concerns the target human adenovirus type 11 fiber knob (human adenovirus type 11) (UniProt P35774). The experiment in a line: crystal structure; complex formed from purified proteins at 4°C for 2 hrs with a 1.2 molar excess of CD46-4D, separated from unbound CD46-4D by size exclusion chromatography (20 mM HEPES, 150 mM NaCl, pH 7.4); crystals at 4°C in 20% polyethylene glycol 1000, 0.2 M ammonium phosphate pH 8.0; space group P6_(3), 2.84 Å. On the technique in general: Size exclusion chromatography separates by hydrodynamic size, large species first.

Data set [2] concerns the molecule itself. The description is as above.

In data set [1], “CD46-4D, extracellular segment of human CD46 (membrane cofactor protein) comprising all four SCR domains (domain or fragment)” registered a stoichiometry N (CD46-4D molecules per knob trimer) of 3.

B1: human adenovirus type 11 fiber knob (domain or fragment)
chain: LTFNSNNICIDDNINTLWTGVNPTEANCQIMNSSESNDCKLILTLVKTGALVTAFVYVIGVSNNFNMLTTHRNINFTAELFFDSTGNLLTRLSSLKTPLNHKSGQNMATGAITNAKGFMPSTTAYPFNDNSREKENYIYGTCYYTASDRTAFPIDISVMLNRRAINDETSYCIRITWSWNTGDAPEVQTSATTLVTSPFTFYYIREDD
notes: fiber protein of human adenovirus type 11, knob domain, amino acids 118-325; also called Ad11 knob; Ad11 fiber knob
Turning to B1, in data set [2], the “stoichiometry N” value came out at 3 protomers.

Values taken from PMC2947992, “Structure of the Extracellular Portion of CD46 Provides Insights into Its Interactions with Complement Proteins and Pathogens” (PLoS Pathogens, 2010).
